Reference: US20170349646A1 (PANASONIC INTELLECTUAL PROPERTY MANAGEMENT, published 2017)

Legend:
[1] = target: recombinant nucleoprotein (NP) protein derived from influenza virus H1N1 to which a Flag tag was fus (influenza virus H1N1)
[2] = target: recombinant nucleoprotein derived from influenza virus subtype A H1N1 (Sino Biological, 11675-VO8H) (influenza virus subtype A H1N1)
Chain of recombinant nucleoprotein derived from influenza virus subtype A H1N1 (Sino Biological, 11675-VO8H) (influenza virus subtype A H1N1) (P03466 whole entry): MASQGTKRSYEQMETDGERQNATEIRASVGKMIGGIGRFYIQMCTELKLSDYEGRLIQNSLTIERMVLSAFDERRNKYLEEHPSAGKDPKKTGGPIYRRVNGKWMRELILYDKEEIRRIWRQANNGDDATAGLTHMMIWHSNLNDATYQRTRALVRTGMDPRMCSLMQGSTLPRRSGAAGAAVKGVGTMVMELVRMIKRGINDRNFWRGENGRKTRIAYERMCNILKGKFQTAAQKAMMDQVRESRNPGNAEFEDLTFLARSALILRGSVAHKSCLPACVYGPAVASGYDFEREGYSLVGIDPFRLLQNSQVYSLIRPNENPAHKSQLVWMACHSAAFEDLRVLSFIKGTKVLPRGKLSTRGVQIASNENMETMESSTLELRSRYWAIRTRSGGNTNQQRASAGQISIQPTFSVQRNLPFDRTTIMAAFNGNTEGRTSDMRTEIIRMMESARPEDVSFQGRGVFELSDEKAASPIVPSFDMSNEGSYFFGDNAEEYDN

Chain of recombinant nucleoprotein (NP) protein derived from influenza virus H1N1 to which a Flag tag was fus (influenza virus H1N1) (P03466 whole entry): as above

B1: VHH antibody consisting of the amino acid sequence represented by SEQ ID NO: 08 (VHH)
VHH: EVQLVESGGGLVQAGDSLRLSCAASGRTFINLDMGWFRQPPGKEREYVAAITRNGAITSYADSAKGRFTISRDNAKNTVSLEMNSLKPEDTGVYYCAAYSISNYGSGWYKPDYWGQGAQVTVSS
Kd [1]: 0.224 nM
EC50 (read off the curve) [2]: ~8 ng/mL
